For assay [1], the target named is T1, SARS-CoV-2 receptor binding domain (RBD) (SARS-CoV-2, UniProt P0DTC2 319-527).
Assay [2] has as its target SARS-CoV-2-Spike (wildtype, on virus) (SARS-CoV-2, UniProt P0DTC2 14-1273). The experiment in a line: cell-based or functional assay.
In assay [3] the target is T1, SARS-CoV-2 receptor binding domain (RBD). In words: BLI (Octet Red96e), IgG on AHC biosensors, RBD in solution.
Assay [4] shares this target. In words: BLI (Octet Red96e), IgG1 on AHC biosensors, RBD in solution.
Assay [5] has the same target. The experiment in a line: BLI (Octet), IgG on anti-human Fc biosensors, RBD in solution. Background: In BLI a coated tip is dipped into the sample, and binding shifts an interference pattern.
For assay [6] the target is unchanged. The experiment in a line: DELFIA, RBD coated on plate, IgG1 in solution.

Like-named read-outs stand apart in the source and are kept apart here.

The term Kd denotes the free concentration of one partner at which half of the binding sites on the other are occupied at equilibrium, for simple one-to-one binding. For orientation: koff means the rate constant with which the complex falls apart. Read a low koff as slow dissociation. For orientation: kon means the second-order rate constant of association. Read a high kon as faster complex formation.

B1: AB-1 full-length IgG1 (antibody, V domains shown)
VH: QMQLVQSGTEVKKPGESLKISCKGSGYGFITVWIGWVRQMPGKGLEWMGIIYPGDSETRYSPSFQGQVTISADKSINTAYLQWSSLKASDTAIYYCAGGSGISTPMDVWGQGTTVTVSS
VL: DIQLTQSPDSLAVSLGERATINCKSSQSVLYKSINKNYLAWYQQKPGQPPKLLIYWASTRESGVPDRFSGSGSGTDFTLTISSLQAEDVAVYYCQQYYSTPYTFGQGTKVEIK
In assay [1], B1 yielded a Kd of 14.6 nM. In assay [2], the “Neutralization (ng/mL), Authentic Virus IC50” value turned out to be 14200 ng/mL; the “Neutralization (ng/mL), Authentic Virus IC80” value was 25000 ng/mL; the “Neutralization (ng/mL), Pseudovirus IC50” value came out at 142 ng/mL. For the same molecule, in assay [3], the Kd was found to be 9.5 nM, the koff was 0.0091 s⁻¹ and the kon was 960000 M⁻¹ s⁻¹. Also, in assay [4], the affinity, expressed as Kd, was 3.3 nM; the Req was 0.98 nm shift; the Response worked out at 1.06 nm; the kobs was found to be 0.023 s⁻¹. In assay [4], this molecule came in with a koff of 0.00074 s⁻¹ and an association rate constant (kon) of 220000 M⁻¹ s⁻¹. Moreover, binding in assay [5] was put at a Kd of 9.5 nM.

B2: AB-12 IgG1 (antibody, V domains shown)
VH: EVQLVQSGAEVKKPGESLKISCKGSGSGFITVWISWVRQMPGKGLEWMGIIYPGDSETRYSPSFQGQVTISADKSISTAYLQWSSLKASDTAMYYCAGGSGISTPMDVWGQGTTVTVSS
VL: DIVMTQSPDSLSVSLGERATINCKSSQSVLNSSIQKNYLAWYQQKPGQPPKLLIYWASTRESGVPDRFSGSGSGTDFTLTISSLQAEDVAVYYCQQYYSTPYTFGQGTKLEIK
Regarding B2, the binding result in assay [6] was “binds”.

B3: AB-2 full-length IgG1 (antibody, V domains shown)
VH: QMQLVQSGTEVKKPGESLKISCKGSGSGTITVWIGWVRQMPGKGLEWMGIIYPGDSETRYSPSFQGQVTISADKSINTAYLQWSSLKASDTAIYYCAGGSGISTPMDVWGQGTTVTVSS
VL: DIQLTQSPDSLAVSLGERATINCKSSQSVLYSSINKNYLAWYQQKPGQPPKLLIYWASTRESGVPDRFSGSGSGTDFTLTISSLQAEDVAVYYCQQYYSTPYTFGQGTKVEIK
Turning to B3, binding in assay [1] was put at a Kd of 84.9 nM. In addition, in assay [2], the “Neutralization (ng/mL), Authentic Virus IC50” value was determined as 25000 ng/mL; the “Neutralization (ng/mL), Authentic Virus IC80” value is 25000 ng/mL; the “Neutralization (ng/mL), Pseudovirus IC50” value is 324 ng/mL.

B4: AB-11 IgG1 (antibody, V domains shown)
VH: EVQLVQSGAEVKKPGESLKISCKGSGSGFITVWIGWVRQMPGKGLEWMGIIYPGDSETRYSPSFEGQVTISADKSISTAYLQWSSLKASDTAMYYCAGGSGISTPMDVWGQGTTVTVSS
VL: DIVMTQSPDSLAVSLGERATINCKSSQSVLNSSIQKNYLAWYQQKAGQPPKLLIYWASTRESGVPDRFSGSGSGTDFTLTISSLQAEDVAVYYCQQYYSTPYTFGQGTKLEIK
For the molecule B4, in assay [6], the binding result was “binds”.

B5: AB-5 full-length IgG1 (antibody, V domains shown)
VH: QMQLVQSGTEVKKPGESLKISCKGSGSGFITYWIGWVRQMPGKGLEWMGIIYPGDSETRYSPSFQGQVTISADKSINTAYLQWSSLKASDTAIYYCAGGSGIYTPMDVWGQGTTVTVSS
VL: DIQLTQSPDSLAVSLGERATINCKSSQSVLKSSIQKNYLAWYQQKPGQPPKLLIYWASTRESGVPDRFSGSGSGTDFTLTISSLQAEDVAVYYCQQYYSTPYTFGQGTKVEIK
In assay [4], B5 gave a Kd of 0.3 nM, a Req of 1.8 nm shift, a Response of 1.84 nm and a kobs of 0.012 s⁻¹. In assay [4], this molecule showed a koff of 3.6e-05 s⁻¹ and a kon of 120000 M⁻¹ s⁻¹.

B6: AB-3 full-length IgG1 (antibody, V domains shown)
VH: QMQLVQSGTEVKKPGESLKISCKGSGSGFITVWIGWVRQMPGKGLEWMGIIYPGDSETRYSPSFQGQVTISADKSINTAYLQWSSLKASDTAIYYCAGGSGISTPMDVWGQGTTVTVSS
VL: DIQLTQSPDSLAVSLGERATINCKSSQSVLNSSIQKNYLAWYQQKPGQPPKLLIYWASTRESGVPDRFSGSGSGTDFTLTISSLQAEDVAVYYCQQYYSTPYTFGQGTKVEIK
On to B6, for which binding in assay [1] was characterised by a dissociation constant (Kd) of 38.8 nM. In assay [2], the “Neutralization (ng/mL), Authentic Virus IC50” value was determined as 25000 ng/mL and the “Neutralization (ng/mL), Authentic Virus IC80” value amounted to 25000 ng/mL. In assay [4], this molecule came in with a Kd of 4.5 nM, a Req of 1.3 nm shift, a Response of 1.42 nm and a kobs of 0.022 s⁻¹. In assay [4], this molecule registered a koff of 0.00096 s⁻¹ and a kon of 210000 M⁻¹ s⁻¹.

B7: AB-4 full-length IgG1 (antibody, V domains shown)
VH: QMQLVQSGTEVKKPGESLKISCKGSGSGFITYWIGWVRQMPGKGLEWMGIIYPGDSETRYSPSFQGQVTISADKSINTAYLQWSSLKASDTAIYYCAGGSGIHTPMDVWGQGTTVTVSS
VL: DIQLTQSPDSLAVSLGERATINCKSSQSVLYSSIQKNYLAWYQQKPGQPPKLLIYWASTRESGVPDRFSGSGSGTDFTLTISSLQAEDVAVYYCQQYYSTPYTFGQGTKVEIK
Take B7: the Kd in assay [1] was determined as 36.1 nM. In assay [2], the “Neutralization (ng/mL), Pseudovirus IC50” value is 86.5 ng/mL.

B8: AB-8 IgG1 (antibody, V domains shown)
VH: EVQLVQSGAEVKKPGESLKISCKGSGSGFITVWIGWVRQMPGKGLEWMGIIYPGDSETRYNQSFKGQVTISADKSISTAYLQWSSLKASDTAMYYCAGGSGISTPMDVWGQGTMVTVSS
VL: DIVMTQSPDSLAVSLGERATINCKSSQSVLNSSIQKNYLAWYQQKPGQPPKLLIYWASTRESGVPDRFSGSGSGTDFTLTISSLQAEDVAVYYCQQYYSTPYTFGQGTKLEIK
On to B8, for which, in assay [6], the binding result is “binds”.

B9: AB-9 IgG1 (antibody, V domains shown)
VH: EVQLVQSGAEVKKPGESLKISCQGSGSGFITVWIGWVRQMPGKGLEWMGIIYPGDSETRYSPSFQGQVTISADKSISTAYLQWSSLKASDTAMYYCAGGSGISTPMDVWGQGTTVTVSS
VL: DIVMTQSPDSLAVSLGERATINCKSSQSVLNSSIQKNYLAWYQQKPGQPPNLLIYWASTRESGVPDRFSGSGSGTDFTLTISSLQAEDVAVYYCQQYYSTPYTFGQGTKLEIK
In the case of B9, in assay [6], the binding result is “binds”.

B10: AB-10 IgG1 (antibody, V domains shown)
VH: EVQLVQSGAEVKKPGGSLKISCKGSGSGFITVWIGWVRQMPGKGLEWMGIIYPGDSETRYSPSFQGQVTISADKSISTAYLQWSSLKASDTAMYYCAGGSGISTPMDVWGQGTTVTVSS
VL: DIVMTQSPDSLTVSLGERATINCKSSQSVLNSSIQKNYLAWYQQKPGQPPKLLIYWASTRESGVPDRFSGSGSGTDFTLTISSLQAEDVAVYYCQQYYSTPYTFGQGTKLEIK
For B10, the binding result in assay [6] was “binds”.

B11: AB-6 full-length IgG1 (antibody, V domains shown)
VH: QMQLVQSGTEVKKPGESLKISCKGSGSGLITVWIGWVRQMPGKGLEWMGIIYPGDSETRYSPSFQGQVTISADKSINTAYLQWSSLKASDTAIYYCAGGSGIYTPMDVWGQGTTVTVSS
VL: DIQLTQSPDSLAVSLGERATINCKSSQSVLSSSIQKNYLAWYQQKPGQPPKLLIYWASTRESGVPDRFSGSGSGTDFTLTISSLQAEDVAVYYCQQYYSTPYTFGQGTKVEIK
Take B11: in assay [4], binding was put at a Kd of 0.96 nM, the Req was determined as 0.48 nm shift, the Response was found to be 0.485 nm and the kobs is 0.031 s⁻¹. In assay [4], this molecule gave a koff of 0.00029 s⁻¹ and a kon of 300000 M⁻¹ s⁻¹.

B12: AB-7 full-length IgG1 (antibody, V domains shown)
VH: QMQLVQSGTEVKKPGESLKISCKGSGSGFITYWIGWVRQMPGKGLEWMGIIYPGDSETRYSPSFQGQVTISADKSINTAYLQWSSLKASDTAIYYCAGGSGIYTPMDVWGQGTTVTVSS
VL: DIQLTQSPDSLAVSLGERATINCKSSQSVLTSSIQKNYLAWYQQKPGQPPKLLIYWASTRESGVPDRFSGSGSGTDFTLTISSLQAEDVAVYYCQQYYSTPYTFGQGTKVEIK
Take B12: in assay [4], the Kd came to 1.5 nM, the Req was 0.55 nm shift, the Response worked out at 0.591 nm and the kobs stood at 0.024 s⁻¹. In assay [4], this molecule registered a koff of 0.00036 s⁻¹ and a kon of 230000 M⁻¹ s⁻¹.

B13: AB-13 IgG1 (antibody, V domains shown)
VH: EVQLVQSGAEVKKPGESLKISCKGSGSGFITVWIGWVRQMPGKGLEWMGIIYPGDSETRYSPSFQGQVTLSADKSISTAYLQWSSLKASDTAMYYCAGGSGISTPMDVWGKGTTVTVSS
VL: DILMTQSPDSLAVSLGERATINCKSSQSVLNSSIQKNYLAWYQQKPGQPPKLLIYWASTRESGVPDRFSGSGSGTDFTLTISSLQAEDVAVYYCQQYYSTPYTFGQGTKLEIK
In the case of B13, the binding result in assay [6] is listed as “binds”.

These data come from US20230295275A1 (FLAGSHIP PIONEERING INNOVATIONS VI, published 2023).
